Substitutions are numbered along the chain they refer to. Names may count otherwise.
B1: VAD (vanillyl-alcohol dehydrogenase from Marinicaulis flavus) (Hyphococcus luteus; P151I) (protein)
chain: MAAPLPEGVSAEAMSSALDRFARIVGADWVFTEDKITPYEDPYTISNDETEHRPYAAVAPASTEEVQEIVRVANEFGVPLWPVSRGKNFAYGGAAPVMSGTVVLDMNRMNRILEVNEEFGYALVEPGVSYFELYDYIQEKGLKLWIDVPDIGWGSVVGNALDHGIGYTPYGDHFAMQCGMEVVLPNGEVVRTGMGAMPGNNTWQLFKYGYGPYVDGIFSQSNFGVVTKMGIWLMPEPAGYRPYLITFENEDDIETVTERLRPLKVAGVIQNGATVRSLVLDAAITRTKSQYYDGDGPIPPSVAKTMMADLDLGMWNFCGALYGPPPVMDTLWTAIRDSFADIPGVKFYFPEDRRHKVDLLLHRAETMKGVPKLTEFNFLNWDGGGGHVGFSPVSPITGKDAIKQYNMVSSRVREYGFDYMGLLAIGWRDLHHVTVIVYDKTDPDERKKLDELFNILVDEAAAEGYGEYRTHIRYMDRIAKTYSWNDNALWKMHETIKDALDPNGILAPGKSGIWGKNRRKA
notes: SUMO tag cleaved for crystals; covalent FAD on H387; dimer
B2: VAD (vanillyl-alcohol dehydrogenase from Marinicaulis flavus) (Hyphococcus luteus; P151V) (protein)
chain: B1 chain with I151V
notes: as for B1
B3: VAD (vanillyl-alcohol dehydrogenase from Marinicaulis flavus) (Hyphococcus luteus; P151N) (protein)
chain: B1 chain with I151N
notes: as for B1
B4: VAD (vanillyl-alcohol dehydrogenase from Marinicaulis flavus) (Hyphococcus luteus) (protein)
chain: B1 chain with I151P
notes: as for B1
B5: VAD (vanillyl-alcohol dehydrogenase from Marinicaulis flavus) (Hyphococcus luteus; P151T) (protein)
chain: B1 chain with I151T
notes: as for B1
B6: VAD (vanillyl-alcohol dehydrogenase from Marinicaulis flavus) (Hyphococcus luteus; P151G) (protein)
chain: B1 chain with I151G
notes: as for B1
B7: VAD (vanillyl-alcohol dehydrogenase from Marinicaulis flavus) (Hyphococcus luteus; P151L) (protein)
chain: B1 chain with I151L
notes: as for B1
B8: EUGO (eugenol oxidase from Rhodococcus jostii RHA1) (Rhodococcus jostii RHA1) (protein)
chain: MTRTLPPGVSDERFDAALQRFRDVVGDKWVLSTADELEAFRDPYPVGAAEANLPSAVVSPESTEQVQDIVRIANEYGIPLSPVSTGKNNGYGGAAPRLSGSVIVKTGERMNRILEVNEKYGYALLEPGVTYFDLYEYLQSHDSGLMLDCPDLGWGSVVGNTLDRGVGYTPYGDHFMWQTGLEVVLPQGEVMRTGMGALPGSDAWQLFPYGFGPFPDGMFTQSNLGIVTKMGIALMQRPPASQSFLITFDKEEDLEQIVDIMLPLRINMAPLQNVPVLRNIFMDAAAVSKRTEWFDGDGPMPAEAIERMKKDLDLGFWNFYGTLYGPPPLIEMYYGMIKEAFGKIPGARFFTHEERDDRGGHVLQDRHKINNGIPSLDELQLLDWVPNGGHIGFSPVSAPDGREAMKQFEMVRNRANEYNKDYAAQFIIGLREMHHVCLFIYDTAIPEAREEILQMTKVLVREAAEAGYGEYRTHNALMDDVMATFNWGDGALLKFHEKIKDALDPNGIIAPGKSGIWSQRFRGQNL
notes: covalent FAD on H390

Experiments:
Test in all cases: purified protein
purified protein [1] = substrate: COc1cc(CO)ccc1O; format: biochemical, Hyphococcus luteus; details: 100 μM DCPIP as acceptor, 25 °C, 50 mM potassium phosphate pH 7.5, 150 mM NaCl
purified protein [2] = substrate: OCc1ccc(O)cc1; format: biochemical, Hyphococcus luteus; details: 100 μM DCPIP as acceptor, 25 °C, 50 mM potassium phosphate pH 7.5, 150 mM NaCl
purified protein [3] = substrate: COCc1ccc(O)cc1; format: biochemical, Hyphococcus luteus; details: 100 μM DCPIP as acceptor, 25 °C, 50 mM potassium phosphate pH 7.5, 150 mM NaCl
purified protein [4] = substrate: C=CCc1ccc(O)c(OC)c1; format: biochemical, Hyphococcus luteus; details: 100 μM DCPIP as acceptor, 25 °C, 50 mM potassium phosphate pH 7.5, 150 mM NaCl
purified protein [5] = substrate: COc1cc(CO)ccc1O; format: biochemical, Rhodococcus jostii; details: molecular oxygen as acceptor, 25 °C, 50 mM potassium phosphate pH 7.5, 150 mM NaCl

| Protein | Km (purified protein [1]) [µM] | kcat (purified protein [1]) [s⁻¹] | kcat/Km (purified protein [1]) [M⁻¹ s⁻¹] | also measured |
| --- | --- | --- | --- | --- |
| B1 | 37.5 ± 9.2 | 0.73 ± 0.04 | 19000 | – |
| B2 | 42.2 ± 6.6 | 0.90 ± 0.04 | 21000 | – |
| B3 | 151 ± 24 | 0.14 ± 0.07 | 1000 | – |
| B4 | 74.2 ± 12.4 | 0.44 ± 0.02 | 6000 | Km (purified protein [2]): 208 ± 9 µM; kcat (purified protein [2]): 0.25 ± 0.01 s⁻¹; kcat/Km (purified protein [2]): 1200 M⁻¹ s⁻¹; Km (purified protein [3]): 330 ± 40 µM; kcat (purified protein [3]): 0.06 ± 0.003 s⁻¹; kcat/Km (purified protein [3]): 200 M⁻¹ s⁻¹; Km (purified protein [4]): 51.2 ± 13.1 µM; kcat (purified protein [4]): 0.81 ± 0.06 s⁻¹; kcat/Km (purified protein [4]): 16000 M⁻¹ s⁻¹ |
| B5 | 17.6 ± 5.5 | 0.48 ± 0.03 | 27000 | – |
| B6 | 316.5 ± 39.7 | 1.49 ± 0.07 | 5000 | – |
| B7 | 72.4 ± 6.3 | 0.76 ± 0.02 | 10500 | – |
| B8 | – | – | – | Km (purified protein [5]): 204.4 ± 28.9 µM; kcat (purified protein [5]): 9.68 ± 0.43 s⁻¹; kcat/Km (purified protein [5]): 47400 M⁻¹ s⁻¹ |
